From paper PMC5456102, “NGR-peptide−drug conjugates with dual targeting properties” (PLoS ONE, 2017)
Positions of bridges follow the written chain, without caps; N, C: chain ends. Residues, ends and D or L forms follow the SMILES beside them. Groups on a side chain read outwards from the residue. Chains are numbered I, II in the order given. *: point of attachment. Daunorubicin(13-NOCH2CO) = COc1cccc2c1C(=O)c1c(O)c3c(c(O)c1C2=O)C[C@@](O)(C(C)=NOCC(=O)*)C[C@@H]3O[C@H]1C[C@H](N)[C@H](O)[C@H](C)O1

Assays:
Lysosomal degradation = type: in vitro ADME; settings: rat liver lysosomal homogenate, 37°C, LC-MS; for time within which the conjugate decomposed in lysosomal homogenate / rate of decomposition in lysosomal homogenate: 0.2 M NaOAc pH 5.0, conjugate/homogenate 1:1 w/w; for time within which the conjugate decomposed in lysosomal homogenate: conjugate 0.2 μg/μL, samples at 5 min, 72 h; for time within which the conjugate decomposed in lysosomal homogenate / starting conjugate found after 6 h incubation in lysosomal homogenate: 6 h; for starting conjugate found after 6 h incubation in lysosomal homogenate: 0.2 M NaOAc pH 5.0, 1:1 w/w
Procedure: Rat liver lysosomal homogenate was prepared as described previously. Protein concentration was determined with bicinchoninic acid (Pierce BCA protein assay) according to the manufacturer’s protocol (ThermoFisher Scientific, Rockford, IL, USA) and it was 17.4 μg/μL. Degradation of the bioconjugates in the rat liver lysosomal homogenate was determined as follows: i) bioconjugates were dissolved in d.i. water at a concentration of 4 μg/μL, ii) the solutes were further diluted to a concentration of 0.2 μg/μL with 0.2 M NaOAc (pH 5.0), iii) the rat liver lysosomal homogenate was diluted with 0.2 M NaOAc (pH 5.0) to a concentration of 3.48 μg/μL, iv) the homogenate was added to the conjugates (conjugate/lysosomal homogenate ratio = 1:1, w/w), v) the reaction mixtures were incubated at 37°C and aliquots of 13 μL were taken at 5 min, 6 h and 72 h, vi) the reactions were quenched by adding 2 μL of formic acid, followed by LC-MS analysis (Bruker Esquire 3000+; Jasco PU-2085plus system; Supelco Ascentis C18 coloum, 3 μm, 2,1 x 150 mm, 100 Å).
Conjugates for drug targeting with receptor-binding peptides may enter the cells by receptor mediated endocytosis. Endocytic vesicles fuse with lysosomes, which is followed by the degradation of the conjugates by lysosomal enzymes. Cathepsin B is one of the main lysosomal enzymes overexpressed in cancer cells. Therefore, Cathepsin B labile spacers (e.g. GFLG tetrapeptide) are often incorporated between the drug and targeting moiety. We used a rat lysosomal homogenate to study the degradation of conjugates and to follow the release of drug containing metabolites (Fig 9, S9–S14 Figs). […] In addition, a minor peak corresponding to Dau = Aoa-Gly-Phe-OH could also be detected. The peak corresponding to Dau = Aoa-GF-OH was the highest in case of conjugate 1. In contrast to these conjugates, decomposition of the disulfide bond containing conjugate (2) was much slower. […] This slow degradation might be one of the reasons why conjugate 2 is less toxic than conjugate 5, which has the same ring size. […] After 72 h only Dau = Aoa-Gly-OH could be detected in cases of all conjugates.

HT-1080 cells = experiment: Cellular uptake by flow cytometry; type: cell-based, human; settings: 10 μM conjugate in FBS supplemented medium, 6 h, 37°C, flow cytometry of Dau fluorescence, live cells (Zombie Violet)
Procedure: (§1) HT-1080 and HT-29 cells were seeded at a 250,000 cells/well density, and were incubated overnight in their culturing media. The following day daunomycin conjugates were dissolved in culturing media (FBS supplemented), and added to the cells immediately at 10 μM final concentration. After 6 h incubation at 37°C the supernatant was removed, cells were washed with PBS and trypsinized with 0.1% trypsin (Gibco® by Life Technologies) for 10 minutes. Trypsinization was terminated with FBS containing medium, then cells were washed and suspended in serum free medium. For live/dead distinction we used Zombie Violet reagent (BioLegend, San Diego, CA). Samples were measured and analyzed with an Attune® Acoustic Focusing Cytometer (ThermoFisher Scientific).
(§2) As daunomycin-conjugates are fluorescent, we were able to follow their cellular uptake with a flow cytometer (Fig 10, S15 Fig). […] The higher uptake of 2 compared to 5 might partly compensate its slower degradation resulting in almost similar bioactivity. […] We speculate that the high cytostatic effect of 3 is explained by its fast decomposition resulting in the active Dau = Aoa-Gly-OH metabolite. […] However, after deamidation the formed isoDGR might be recognized by RGD integrin receptor, that results in moderate cytotoxicity in both cell lines during a longer treatment. […] Taking also the slow metabolite release into account, this observation explains the lack of significant cytostatic effect.
(§3) Fig 10 Direct uptake of daunomycin-conjugates. Normalized uptake values indicate the fold increase of the measured fluorescent units compared to the autofluorescence of empty cells.

HT-29 cells = experiment: Cellular uptake by flow cytometry; type: cell-based, human; settings: 10 μM conjugate in FBS supplemented medium, 6 h, 37°C, flow cytometry of Dau fluorescence, live cells (Zombie Violet)
Procedure: as §1, §2, §3

[1] = non-conjugated cyclic peptides; cited from earlier work
Text: Cyclic NGR peptides are promising candidates as targeting moieties for drug delivery to CD13-positive tumor cells and the tumor neovasculature. Up to now the most widely used NGR peptide conjugates have been based on the disulfide bridge containing cyclic peptide [CNGRC]. The cargo (including tumor necrosis factor (TNF), platina complexes, etc.) is usually attached to the C-terminus of the peptide. Recently, an amide bond containing cyclic NGR peptide ([KNGRE]-NH2) with higher resilience against deamidation has been described, in which cargos such as fluorescent labels or chelated ...

Molecule | time within which the conjugate decomposed in lysosomal homogenate (Lysosomal degradation) [h] | cellular uptake in HT-1080 cells (HT-1080 cells) | cellular uptake in HT-29 cells (HT-29 cells) | starting conjugate found after 6 h incubation in lysosomal homogenate (Lysosomal degradation) | rate of decomposition in lysosomal homogenate (Lysosomal degradation) | chemostability class of the free cyclic NGR peptide (deamidation) [1]
COc1cccc2c1C(=O)c1c(O)c3c(c(O)c1C2=O)C[C@@](O)(C(C)=NOCC(=O)NCC(=O)N[C@@H](Cc1ccccc1)C(=O)N[C@@H](CC(C)C)C(=O)NCC(=O)N[C@@H](CCCCNC(=O)CNC(=O)CNC(=O)[C@@H]1CSCC(=O)N[C@@H](CC(N)=O)C(=O)NCC(=O)N[C@@H](CCCNC(=N)N)C(=O)N1)C(N)=O)C[C@@H]3O[C@H]1C[C@H](N)[C@H](O)[C@H](C)O1 [compound 1, Dau = GFLGK([CH2CO-NGRC]GG)-NH2] (I: {CH2CO}-NGRCGG / II: {Daunorubicin(13-NOCH2CO)}-GFLGK-NH2; amide I:C-II:5; thioether I:N-I:4) | ≤ 6 | did not show significant cellular uptake | did not show significant cellular uptake | – | – | –
COc1cccc2c1C(=O)c1c(O)c3c(c(O)c1C2=O)C[C@@](O)(C(C)=NOCC(=O)NCC(=O)N[C@@H](Cc1ccccc1)C(=O)N[C@@H](CC(C)C)C(=O)NCC(=O)N[C@@H](CCCCNC(=O)CNC(=O)CNC(=O)[C@@H]1CSSC[C@H](NC(C)=O)C(=O)N[C@@H](CC(N)=O)C(=O)NCC(=O)N[C@@H](CCCNC(=N)N)C(=O)N1)C(N)=O)C[C@@H]3O[C@H]1C[C@H](N)[C@H](O)[C@H](C)O1 [compound 2, Dau = GFLGK(Ac-[CNGRC]GG)-NH2] (I: Ac-CNGRCGG / II: {Daunorubicin(13-NOCH2CO)}-GFLGK-NH2; disulfide I:1-I:5; amide I:C-II:5) | – | higher accumulation | higher accumulation | the presence of the starting compound could be detected | much slower | –
COc1cccc2c1C(=O)c1c(O)c3c(c(O)c1C2=O)C[C@@](O)(C(C)=NOCC(=O)NCC(=O)N[C@@H](Cc1ccccc1)C(=O)N[C@@H](CC(C)C)C(=O)NCC(=O)N[C@@H](CCCCNC(=O)CNC(=O)CNC(=O)[C@@H]1CSCC(=O)N[C@@H](CCCCN)C(=O)N[C@@H](CC(N)=O)C(=O)NCC(=O)N[C@@H](CCCNC(=N)N)C(=O)N1)C(N)=O)C[C@@H]3O[C@H]1C[C@H](N)[C@H](O)[C@H](C)O1 [compound 3, Dau = GFLGK([CH2CO-KNGRC]GG)-NH2] (I: {CH2CO}-KNGRCGG / II: {Daunorubicin(13-NOCH2CO)}-GFLGK-NH2; amide I:C-II:5; thioether I:N-I:5) | ≤ 6 | moderate uptake | moderate uptake | – | – | –
COc1cccc2c1C(=O)c1c(O)c3c(c(O)c1C2=O)C[C@@](O)(C(C)=NOCC(=O)NCC(=O)N[C@@H](Cc1ccccc1)C(=O)N[C@@H](CC(C)C)C(=O)NCC(=O)NCCCC[C@@H]1NC(=O)CSC[C@@H](C(N)=O)NC(=O)[C@H](CCCNC(=N)N)NC(=O)CNC(=O)[C@H](CC(N)=O)NC1=O)C[C@@H]3O[C@H]1C[C@H](N)[C@H](O)[C@H](C)O1 [compound 4, [CH2CO-K(Dau = Aoa-GFLG)NGRC]-NH2] ({CH2CO}-K([Gly-Leu-Phe-Gly-Daunorubicin(13-NOCH2CO)])NGRC-NH2; thioether N-5) | – | low cellular uptake | low cellular uptake | the main components were still the intact conjugates | decomposed very slowly | –
COc1cccc2c1C(=O)c1c(O)c3c(c(O)c1C2=O)C[C@@](O)(C(C)=NOCC(=O)NCC(=O)N[C@@H](Cc1ccccc1)C(=O)N[C@@H](CC(C)C)C(=O)NCC(=O)NCCCC[C@@H]1NC(=O)CC[C@@H](C(N)=O)NC(=O)[C@H](CCCNC(=N)N)NC(=O)CNC(=O)[C@H](CC(N)=O)NC1=O)C[C@@H]3O[C@H]1C[C@H](N)[C@H](O)[C@H](C)O1 [compound 6, [K(Dau = Aoa-GFLG)NGRE]-NH2] (K([Gly-Leu-Phe-Gly-Daunorubicin(13-NOCH2CO)])NGRE-NH2; lactam N-5) | – | low cellular uptake | low cellular uptake | the main components were still the intact conjugates | decomposed very slowly | –
Ac-CNGRC-NH2 (disulfide 1-5) [Ac-[CNGRC]-NH2, disulfide bridge containing cyclic NGR peptide] | – | – | – | – | – | moderately
c[CH2-CO-KNGRC]-NH2 (sidechain bridge or staple) [thioether bond containing cyclic NGR peptide] | – | – | – | – | – | highly labile
c[CH2-CO-NGRC]-NH2 | – | – | – | – | – | highly labile
c[KNGRE]-NH2 (lariat or depsi) [head-to-side chain amide bond cyclized NGR peptide] | – | – | – | – | – | stable
